Laboratory results taken from the RNAGym collection of RNA variant scans (doi:10.1073/pnas.2313332121).

B1: TPR t1 (parent)
chain: GACCAAUCUGCCCUCAGAGCUCGAGAACAUCUUCGGAUGCAGAGGAGGCAGGCUUCGGUGGCGCGAUAGCGCCAACGUCCUCAACCUCCAAUGCAUCCCACCACAUGAUGAUGCCUGAAGAGCCUUGGUUUUUUG

Variants of: B1
Experiment: polymerase ribozyme fitness, log enrichment relative to wild type (log ratio); higher = more active; in vitro selection for triplet polymerase activity
Summary of the method: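 Only genotypes with ≥10 input reads and ≥1 read per output were kept after Illumina sequencing of input and output libraries. These libraries were PCR-built, transcribed mutants of each subunit of a heterodimeric triplet polymerase ribozyme, each put through one triplicate in vitro selection round with frozen incubation at −7 °C, gel excision of extended constructs, streptavidin-bead capture and RT-PCR. Fitness is a logarithmic ratio of genotype enrichment to wild-type enrichment, from inverse-variance-weighted replicate averages, with the logarithm in base 2.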

In order of rising “polymerase ribozyme fitness (log ratio)” value:
1. G65A C114G  -7.73
2. C64A C80G A83U C99U A103C U125A  -7.56
3. A68U A111C  -7.12
4. C64A A83U  -7.05
5. C64A G113A  -6.92
6. G69A C89G C97A A105C G110U  -6.73
7. G69A C88G C102U  -6.62
8. C64A U92A C98U G110C C114A U133A  -6.59
9. C64G C114A  -6.24
10. C64G G77A A111G U116C  -6.18
11. U67G C82A  -6.14
12. C64G U112G  -6.14
13. C64A G93C G117C  -6.1
14. U67C C94A C123U  -6.04
15. A68G G71A A95C  -6.02
16. U67C C88A G117C  -5.9
17. A68U C124U  -5.86
18. C64G C79G G120A G135C  -5.74
19. G65C U87A  -5.6
20. C64A C115U  -5.54
21. C64G U106A  -5.51
22. A68G C114U  -5.48
23. A66G A100U G128A  -5.33
24. G69A C114U  -5.33
25. C64G A121C  -5.13
26. G69A C114A  -5.11
27. A66U C76U C89G C124U G128U U132C  -5.09
28. C64U A66U C72U C97A C123G  -4.97
29. U67C A105U  -4.9
30. G69A C114G  -4.69
31. U67C C123G  -4.34
32. G65U A66C  -4.3
33. C64G C124A  -4.25
34. A66U G77C C82U G128C  -4.12
35. G65U C124A  -4.07
36. A68G C101G  -3.93
37. G69A G135U  -3.93
38. C64A G120C  -3.88
39. G69A C98U  -3.52
40. C64U C76G  -3.51
41. C64U A66G  -3.44
42. G63U U87A C114A  -3.29
43. G69A U81A  -3.16
44. A66G C72U C80U C123A  -3.12
45. C64U C85A  -3.12
46. G69A A84U  -3.06
47. C64U U92A  -3.06
48. A66U G71C  -3.02
49. G69A C73A  -2.75
50. A66G U126G  -2.72
51. A66C C85A C86A  -2.7
52. C64U G117C  -2.58
53. A66U C76U U106C A119G U126C U130A  -2.47
54. A66C G117A A119U  -2.36
55. G69A G120U  -2.36
56. G69A C82U G120A G122U  -2.26
57. G63U G127A  -2.25
58. G69A A121U U126G  -2.09
59. A66G C97U U112G  -2.06
60. A66C C82G  -2.06
61. C64U C86A U129A  -1.99
62. C64U A74C A75U G110A  -1.89
63. G63U U130C  -1.84
64. C64U U116A G120U  -1.79
65. A66C U112C A119C  -1.53
66. A66C C82A  -1.46
67. C64U C86A  -1.42
68. C64U A84C C94G  -1.23
69. C64U C101A  -1.22
70. C64U C88G  -1.13
71. G63U U112A G120A  -1.02
72. G69A C104U G120A U133A  -0.971
73. C64U U106G G120C  -0.96
74. A66C U130C  -0.918
75. A68G U112C  -0.794
76. C64U C73U C82U  -0.57
77. A66C A84C C123U U133G  -0.245
78. C64U C115U  -0.234
79. C64U U78C  -0.191
80. A66U U78C C123U  -0.156
81. C64U U130A  -0.073
82. C64U G135C  0.469
83. C64U G120U C123G  1.13
84. C64U U112G C124G G135A  1.56
